Measured values: patent publication US20040096912A1

Target: µ opioid receptors in brain membranes of heterozygous Cre/S196A mice
Assay: [^3H]DAMGO saturation binding, Scatchard analysis, brain membranes of heterozygous Cre/S196A mice

Kd: 2.45 nM
Substance: [^3H]DAMGO ([D-Ala^1.N-McPhe^4.Gly^5-ol]enkephalin) (peptide)
